Laboratory results reported in patent publication US20240252592A1 (TIANJIN INSTITUTE OF PHARMACEUTICAL RESEARCH, published 2024).
Numbered stars: 1 amine (or outer) side, 2 acyl side, 3 side chain; on linkers, the order of the positions; unused ones are H or OH. Square brackets hold non-standard residues; d marks the D form. Side chains are listed from the residue outwards. Ends that are not written are not given here. * marks the point of attachment. C18 diacid = O=C(O)CCCCCCCCCCCCCCCCC(=O)*; γGlu = O=C(O)[C@H](CCC(=O)[*:2])N[*:1]; Palmitoyl = CCCCCCCCCCCCCCCC(=O)*; AEEA = NCCOCCOCC(=O)O; Aib = CC(C)(N)C(=O)O

Tests used:
[1] = molecular target: human GLP-1 receptor (human, UniProt P43220 24-463); experiment: cell-based or functional assay
[2] = molecular target: GC receptor; experiment: cell-based or functional assay

Binder	EC50 of GLP-1 receptor mediated cAMP production [1]	EC50 of GC receptor mediated cAMP production [2]
H[Aib]QGTFTSDK([γGlu-γGlu-Palmitoyl])SKYLEERAAKEFIAWLEGGPSSG-NH2 (not fully specified; printed as HAibQGTFTSDK*SKYLEERAAKEFIAWLEGGPSSG-Amid) [Compound 21]	0.83 nM	0.175 nM
HXQGTFTSDYSKYLXERAAKEFVXWLEAGGPSSG (HELM PEPTIDE1{H.[Aib].Q.G.T.F.T.S.D.Y.S.K.Y.L.D.E.R.A.A.K.E.F.V.A.W.L.E.A.G.G.P.S.S.G.[am]}|PEPTIDE2{[CCCCCCCCCCCCCCCC(=O)[*:2]].[gGlu].[gGlu]}$PEPTIDE1,PEPTIDE2,20:R3-3:R2$$$V2.0; N-terminus assumed; SMILES CCCCCCCCCCCCCCCC(=O)N[C@@H](CCC(=O)N[C@@H](CCC(=O)NCCCC[C@H](NC(=O)[C@H](C)NC(=O)[C@H](C)NC(=O)[C@H](CCCNC(=N)N)NC(=O)[C@H](CCC(=O)O)NC(=O)[C@H](CC(=O)O)NC(=O)[C@H](CC(C)C)NC(=O)[C@H](Cc1ccc(O)cc1)NC(=O)[C@H](CCCCN)NC(=O)[C@H](CO)NC(=O)[C@H](Cc1ccc(O)cc1)NC(=O)[C@H](CC(=O)O)NC(=O)[C@H](CO)NC(=O)[C@@H](NC(=O)[C@H](Cc1ccccc1)NC(=O)[C@@H](NC(=O)CNC(=O)[C@H](CCC(N)=O)NC(=O)C(C)(C)NC(=O)[C@@H](N)Cc1c[nH]cn1)[C@@H](C)O)[C@@H](C)O)C(=O)N[C@@H](CCC(=O)O)C(=O)N[C@@H](Cc1ccccc1)C(=O)N[C@H](C(=O)N[C@@H](C)C(=O)N[C@@H](Cc1c[nH]c2ccccc12)C(=O)N[C@@H](CC(C)C)C(=O)N[C@@H](CCC(=O)O)C(=O)N[C@@H](C)C(=O)NCC(=O)NCC(=O)N1CCC[C@H]1C(=O)N[C@@H](CO)C(=O)N[C@@H](CO)C(=O)NCC(N)=O)C(C)C)C(=O)O)C(=O)O) [Compound 15]	0.58 nM	0.148 nM
HXQGTFTSDKSKYLEERAAKEFIAWLLEGGPSSG (HELM PEPTIDE1{H.[Aib].Q.G.T.F.T.S.D.K.S.K.Y.L.E.E.R.A.A.K.E.F.I.A.W.L.L.E.G.G.P.S.S.G.[am]}|PEPTIDE2{[CCCCCCCCCCCCCCCC(=O)[*:2]].[gGlu].[gGlu]}$PEPTIDE1,PEPTIDE2,10:R3-3:R2$$$V2.0; N-terminus assumed; SMILES CCCCCCCCCCCCCCCC(=O)N[C@@H](CCC(=O)N[C@@H](CCC(=O)NCCCC[C@H](NC(=O)[C@H](CC(=O)O)NC(=O)[C@H](CO)NC(=O)[C@@H](NC(=O)[C@H](Cc1ccccc1)NC(=O)[C@@H](NC(=O)CNC(=O)[C@H](CCC(N)=O)NC(=O)C(C)(C)NC(=O)[C@@H](N)Cc1c[nH]cn1)[C@@H](C)O)[C@@H](C)O)C(=O)N[C@@H](CO)C(=O)N[C@@H](CCCCN)C(=O)N[C@@H](Cc1ccc(O)cc1)C(=O)N[C@@H](CC(C)C)C(=O)N[C@@H](CCC(=O)O)C(=O)N[C@@H](CCC(=O)O)C(=O)N[C@@H](CCCNC(=N)N)C(=O)N[C@@H](C)C(=O)N[C@@H](C)C(=O)N[C@@H](CCCCN)C(=O)N[C@@H](CCC(=O)O)C(=O)N[C@@H](Cc1ccccc1)C(=O)N[C@H](C(=O)N[C@@H](C)C(=O)N[C@@H](Cc1c[nH]c2ccccc12)C(=O)N[C@@H](CC(C)C)C(=O)N[C@@H](CC(C)C)C(=O)N[C@@H](CCC(=O)O)C(=O)NCC(=O)NCC(=O)N1CCC[C@H]1C(=O)N[C@@H](CO)C(=O)N[C@@H](CO)C(=O)NCC(N)=O)[C@@H](C)CC)C(=O)O)C(=O)O) [Compound 16]	0.405 nM	0.092 nM
H[Aib]QGTFTSDK([AEEA-AEEA-γGlu-C18 diacid])SKYLEERAAKEFVAWLEAGGPSSG-NH2 (not fully specified; printed as HAibQGTFTSDK**SKYLEERAAKEFVAWLEAGGPSSG-Amid) [Compound 22]	0.027 nM	0.018 nM
HXQGTFTSDKSKYLEERAAKEFVEWLLEAGGPSSG (HELM PEPTIDE1{H.[Aib].Q.G.T.F.T.S.D.K.S.K.Y.L.E.E.R.A.A.K.E.F.V.E.W.L.L.E.A.G.G.P.S.S.G.[am]}|PEPTIDE2{[CCCCCCCCCCCCCCCC(=O)[*:2]].[gGlu].[gGlu]}$PEPTIDE1,PEPTIDE2,10:R3-3:R2$$$V2.0; N-terminus assumed; SMILES CCCCCCCCCCCCCCCC(=O)N[C@@H](CCC(=O)N[C@@H](CCC(=O)NCCCC[C@H](NC(=O)[C@H](CC(=O)O)NC(=O)[C@H](CO)NC(=O)[C@@H](NC(=O)[C@H](Cc1ccccc1)NC(=O)[C@@H](NC(=O)CNC(=O)[C@H](CCC(N)=O)NC(=O)C(C)(C)NC(=O)[C@@H](N)Cc1c[nH]cn1)[C@@H](C)O)[C@@H](C)O)C(=O)N[C@@H](CO)C(=O)N[C@@H](CCCCN)C(=O)N[C@@H](Cc1ccc(O)cc1)C(=O)N[C@@H](CC(C)C)C(=O)N[C@@H](CCC(=O)O)C(=O)N[C@@H](CCC(=O)O)C(=O)N[C@@H](CCCNC(=N)N)C(=O)N[C@@H](C)C(=O)N[C@@H](C)C(=O)N[C@@H](CCCCN)C(=O)N[C@@H](CCC(=O)O)C(=O)N[C@@H](Cc1ccccc1)C(=O)N[C@H](C(=O)N[C@@H](CCC(=O)O)C(=O)N[C@@H](Cc1c[nH]c2ccccc12)C(=O)N[C@@H](CC(C)C)C(=O)N[C@@H](CC(C)C)C(=O)N[C@@H](CCC(=O)O)C(=O)N[C@@H](C)C(=O)NCC(=O)NCC(=O)N1CCC[C@H]1C(=O)N[C@@H](CO)C(=O)N[C@@H](CO)C(=O)NCC(N)=O)C(C)C)C(=O)O)C(=O)O) [Compound 25]	0.211 nM	0.278 nM

Results, then the binder that gave them:

EC50 of GLP-1 receptor mediated cAMP production [1]	EC50 of GC receptor mediated cAMP production [2]	Binder
2.21 nM	0.486 nM	H[Aib]QGTFTSDK([AEEA-AEEA-γGlu-C18 diacid])SKYLEERAAKEFVAWLKEGGPSSG-NH2 (N-terminus assumed; SMILES CC(C)C[C@H](NC(=O)[C@H](Cc1c[nH]c2ccccc12)NC(=O)[C@H](C)NC(=O)[C@@H](NC(=O)[C@H](Cc1ccccc1)NC(=O)[C@H](CCC(=O)O)NC(=O)[C@H](CCCCN)NC(=O)[C@H](C)NC(=O)[C@H](C)NC(=O)[C@H](CCCNC(=N)N)NC(=O)[C@H](CCC(=O)O)NC(=O)[C@H](CCC(=O)O)NC(=O)[C@H](CC(C)C)NC(=O)[C@H](Cc1ccc(O)cc1)NC(=O)[C@H](CCCCN)NC(=O)[C@H](CO)NC(=O)[C@H](CCCCNC(=O)COCCOCCNC(=O)COCCOCCNC(=O)CC[C@H](NC(=O)CCCCCCCCCCCCCCCCC(=O)O)C(=O)O)NC(=O)[C@H](CC(=O)O)NC(=O)[C@H](CO)NC(=O)[C@@H](NC(=O)[C@H](Cc1ccccc1)NC(=O)[C@@H](NC(=O)CNC(=O)[C@H](CCC(N)=O)NC(=O)C(C)(C)NC(=O)[C@@H](N)Cc1c[nH]cn1)[C@@H](C)O)[C@@H](C)O)C(C)C)C(=O)N[C@@H](CCCCN)C(=O)N[C@@H](CCC(=O)O)C(=O)NCC(=O)NCC(=O)N1CCC[C@H]1C(=O)N[C@@H](CO)C(=O)N[C@@H](CO)C(=O)NCC(N)=O) [Compound 17]
3.53 nM	6.25 nM	HXQGTFTSDKSKYLESERAKEFVEWLVKEGGPSSG (HELM PEPTIDE1{H.[Aib].Q.G.T.F.T.S.D.K.S.K.Y.L.E.S.E.R.A.K.E.F.V.E.W.L.V.K.E.G.G.P.S.S.G.[am]}|PEPTIDE2{[CCCCCCCCCCCCCCCC(=O)[*:2]].[gGlu].[gGlu]}$PEPTIDE1,PEPTIDE2,10:R3-3:R2$$$V2.0; N-terminus assumed; SMILES CCCCCCCCCCCCCCCC(=O)N[C@@H](CCC(=O)N[C@@H](CCC(=O)NCCCC[C@H](NC(=O)[C@H](CC(=O)O)NC(=O)[C@H](CO)NC(=O)[C@@H](NC(=O)[C@H](Cc1ccccc1)NC(=O)[C@@H](NC(=O)CNC(=O)[C@H](CCC(N)=O)NC(=O)C(C)(C)NC(=O)[C@@H](N)Cc1c[nH]cn1)[C@@H](C)O)[C@@H](C)O)C(=O)N[C@@H](CO)C(=O)N[C@@H](CCCCN)C(=O)N[C@@H](Cc1ccc(O)cc1)C(=O)N[C@@H](CC(C)C)C(=O)N[C@@H](CCC(=O)O)C(=O)N[C@@H](CO)C(=O)N[C@@H](CCC(=O)O)C(=O)N[C@@H](CCCNC(=N)N)C(=O)N[C@@H](C)C(=O)N[C@@H](CCCCN)C(=O)N[C@@H](CCC(=O)O)C(=O)N[C@@H](Cc1ccccc1)C(=O)N[C@H](C(=O)N[C@@H](CCC(=O)O)C(=O)N[C@@H](Cc1c[nH]c2ccccc12)C(=O)N[C@@H](CC(C)C)C(=O)N[C@H](C(=O)N[C@@H](CCCCN)C(=O)N[C@@H](CCC(=O)O)C(=O)NCC(=O)NCC(=O)N1CCC[C@H]1C(=O)N[C@@H](CO)C(=O)N[C@@H](CO)C(=O)NCC(N)=O)C(C)C)C(C)C)C(=O)O)C(=O)O) [Compound 19]
0.194 nM	0.329 nM	H[Aib]QGTFTSDK([AEEA-AEEA-γGlu-C18 diacid])SKYLDEKRAKEFIEWLEAGGPSSG-NH2 (N-terminus assumed; SMILES CC[C@H](C)[C@H](NC(=O)[C@H](Cc1ccccc1)NC(=O)[C@H](CCC(=O)O)NC(=O)[C@H](CCCCN)NC(=O)[C@H](C)NC(=O)[C@H](CCCNC(=N)N)NC(=O)[C@H](CCCCN)NC(=O)[C@H](CCC(=O)O)NC(=O)[C@H](CC(=O)O)NC(=O)[C@H](CC(C)C)NC(=O)[C@H](Cc1ccc(O)cc1)NC(=O)[C@H](CCCCN)NC(=O)[C@H](CO)NC(=O)[C@H](CCCCNC(=O)COCCOCCNC(=O)COCCOCCNC(=O)CC[C@H](NC(=O)CCCCCCCCCCCCCCCCC(=O)O)C(=O)O)NC(=O)[C@H](CC(=O)O)NC(=O)[C@H](CO)NC(=O)[C@@H](NC(=O)[C@H](Cc1ccccc1)NC(=O)[C@@H](NC(=O)CNC(=O)[C@H](CCC(N)=O)NC(=O)C(C)(C)NC(=O)[C@@H](N)Cc1c[nH]cn1)[C@@H](C)O)[C@@H](C)O)C(=O)N[C@@H](CCC(=O)O)C(=O)N[C@@H](Cc1c[nH]c2ccccc12)C(=O)N[C@@H](CC(C)C)C(=O)N[C@@H](CCC(=O)O)C(=O)N[C@@H](C)C(=O)NCC(=O)NCC(=O)N1CCC[C@H]1C(=O)N[C@@H](CO)C(=O)N[C@@H](CO)C(=O)NCC(N)=O) [Compound 23]
